Source: the supplement of paper PMC10899765

Columns and labels:
Conditions in all cases: 20 nM; 72 h
MCF10A [1] = experiment: one-nucleolus phenotype percent effect (relative to siNT 0% and siNOL11 100%); higher = more cells with one nucleolus (ribosome biogenesis inhibition)
Experimental: (§1)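 After 72 h, cells were fixed and stained with Hoechst and anti-fibrillarin, and nucleoli per nucleus were counted with CellProfiler. Values are plate-adjusted percent effect for the one-nucleolus and 5+ nucleoli phenotypes, normalised to siNT (0%) and to the positive controls siNOL11 or siKIF11 (100%), as the mean of biological triplicates. Percent viability is the nuclei count relative to siNT.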

MCF10A [2] = experiment: 5+ nucleoli phenotype percent effect (relative to siNT 0% and siKIF11 100%); higher = more cells with five or more nucleoli
Experimental: as §1

MCF10A [3] = experiment: percent viability (nuclei count relative to siNT); higher = more viable cells
Experimental: as §1

Sequence	one-nucleolus phenotype percent effect (MCF10A [1]) [%]	5+ nucleoli phenotype percent effect (MCF10A [2]) [%]	percent viability (MCF10A [3]) [%]
CAGUGCAAGUGUAGAUGCCGA [hsa-miR-3666]	-18.2	66.7	150
CAGUGCAAUAGUAUUGUCAAAGC [hsa-miR-301a-3p]	-17.2	43.8	126
CAGUGCAAUGAUAUUGUCAAAGC [hsa-miR-301b]	-11.1	45.2	95.6
CAGUGCAAUGAUGAAAGGGCAU [hsa-miR-130b-3p]	-14.8	59.9	77
CAGUGCAAUGUUAAAAGGGCAU [hsa-miR-130a-3p]	-19.9	49.2	120
CAGUGCAAUGUUUUCCUU [hsa-miR-4295]	-33	97.9	78.5
CAGUGCCUCGGCAGUGCAGCCC [hsa-miR-33b-3p]	-17.8	24.5	107
CAGUGGCCAGAGCCCUGCAGUG [hsa-miR-3677-5p]	16.6	-20.3	28.6
CAGUGGUUUUACCCUAUGGUAG [hsa-miR-140-5p]	20.1	-31.4	61.4
CAGUGUUCAGAGAUGGA [hsa-miR-4255]	-51.8	68.6	148
CAGUUAUCACAGUGCUGAUGCU [hsa-miR-101-5p]	8.44	-23.5	33.9
CAGUUCAGAAGUGUUCCUGAGU [hsa-miR-5000-5p]	-9.77	-19.1	32.3
CAGUUCUGCUGUUCUGACUCUAG [hsa-miR-6874-3p]	-4.11	-30.6	28.9
CAGUUGGGUCUAGGGGUCAGGA [hsa-miR-4259]	31.8	-30.7	16
CAUAAAGUAGAAAGCACUACU [hsa-miR-142-5p]	-15.5	15	82.4
CAUACAAUCUGACAUGUAUUU [hsa-miR-4666a-3p]	-4.04	15.8	66.1
CAUAGCCCGGUCGCUGGUACAUGA [hsa-miR-3651]	17.1	-7.1	70
CAUCAGAAUUCAUGGAGGCUAG [hsa-miR-2115-3p]	15.3	-5.23	39
CAUCAGCACCCUAUGUCCUUUCU [hsa-miR-3617-3p]	29.5	-20.3	20
CAUCAUCGUCUCAAAUGAGUCU [hsa-miR-136-3p]	-9.83	22.1	37.4

Sequence	one-nucleolus phenotype percent effect (MCF10A [1]) [%]	5+ nucleoli phenotype percent effect (MCF10A [2]) [%]	percent viability (MCF10A [3]) [%]
CAUCCCUUGCAUGGUGGAGGG [hsa-miR-188-5p]	-13.1	45.6	98.4
CAUCCGUCCGUCUGUCCAC [hsa-miR-4800-3p]	-2.39	-3.64	67.4
CAUCUCUAAGGAACUCCCCCAA [hsa-miR-3675-3p]	10.4	8.48	62
CAUCUGGGCAACUGACUGAAC [hsa-miR-1298-3p]	57	-17.1	7.06
CAUCUUACCGGACAGUGCUGGA [hsa-miR-200a-5p]	5.98	-26	56
CAUCUUACUGGGCAGCAUUGGA [hsa-miR-200b-5p]	-11.1	0.989	73.7
CAUCUUCCAGUACAGUGUUGGA [hsa-miR-141-5p]	-9.13	-4.79	64.8
CAUGACGUCACAGAGGCUUCGC [hsa-miR-4757-3p]	-14.4	36.1	61.2
CAUGCCUUGAGUGUAGGACCGU [hsa-miR-532-5p]	19.3	-20.1	19.5
CAUGCUAGGAUAGAAAGAAUGG [hsa-miR-3146]	15.7	-22.8	30.5
CAUGCUGACCUCCCUCCUGCCCCAG [hsa-miR-4728-3p]	-12.7	20.8	69.7
CAUGGGAGUUCGGGGUGGUUGC [hsa-miR-6871-5p]	14.1	5.7	25.6
CAUGGGGUAGGGCAGAGUAGG [hsa-miR-6890-5p]	21.6	-15.7	43.6
CAUGGUUCUGUCAAGCACCGCG [hsa-miR-218-2-3p]	12.5	7.58	68
CAUUACAGCACAGCCAUUCU [hsa-miR-6504-3p]	2.85	-25.6	47.5
CAUUAUUACUUUUGGUACGCG [hsa-miR-126-5p]	-14.9	12.5	88.9
CAUUCAACUAGUGAUUGU [hsa-miR-4272]	-23.4	33.7	170
CAUUGCACUUGUCUCGGUCUGA [hsa-miR-25-3p]	3.94	-21.1	96.4
CCAAAACUGCAGUUACUUUUGC [hsa-miR-548o-3p]	-18	27.5	99.8
CCAAACCAGUCGUGCCUGUGG [hsa-miR-6715a-3p]	24.3	-42	40.8

Sequence	one-nucleolus phenotype percent effect (MCF10A [1]) [%]	5+ nucleoli phenotype percent effect (MCF10A [2]) [%]	percent viability (MCF10A [3]) [%]
CCAAAUCUUGAUCAGAAGCCU [hsa-miR-4762-5p]	-8.43	26.6	106
CCAACCUAGGUGGUCAGAGUUG [hsa-miR-4714-3p]	-11.1	42	98.3
CCAAGGAAGGAGGCUGGACAUC [hsa-miR-6830-5p]	13.3	-10.3	47.1
CCAAUAUUACUGUGCUGCUUUA [hsa-miR-16-2-3p]	-17.8	40.6	121
CCAAUAUUGGCUGUGCUGCUCC [hsa-miR-195-3p]	-16.1	27.5	142
CCAAUUACCACUUCUUU [hsa-miR-4275]	-17.6	23.8	74.6
CCACCAGGUCUAGCAUUGGGAU [hsa-miR-4733-3p]	12.6	-9.32	29.8
CCACCGGGGGAUGAAUGUCAC [hsa-miR-181d-3p]	24.4	-15.9	40.6
CCACCUCCCCUGCAAACGUCCA [hsa-miR-1306-5p]	-25.8	33	35
CCACGUGCUUCUCUUUCCGCAG [hsa-miR-6767-3p]	13.2	-26	69
CCACUGCCUAUGCCCCACAG [hsa-miR-6890-3p]	-16.6	-13.4	62.1
CCACUUGGAUCUGAAGGCUGCCC [hsa-miR-3614-5p]	36.9	-32.4	32.9
CCAGACAGAAUUCUAUGCACUUUC [hsa-miR-1324]	-11	49.8	120
CCAGACUGUGGCUGACCAGAGG [hsa-miR-4494]	-29.5	52.3	96.4
CCAGAGAUGGUUGCCUUCCUAU [hsa-miR-4756-3p]	-3.67	4.75	56.8
CCAGAGCAGCCUGCGGUAACAGU [hsa-miR-6501-3p]	1.17	-17.2	35.1
CCAGAGGUGGGGACUGAG [hsa-miR-4257]	22.3	1.69	24.6
CCAGCCACGGACUGAGAGUGCAU [hsa-miR-4691-3p]	-11.4	26.3	51.4
CCAGGAGAUCCAGAGAGAAU [hsa-miR-4768-3p]	0.373	1.69	32.6
